Laboratory results reported in patent US7056679 (ANTYRA, dated 2006).

T1: DGI-9 (HEC) (UniProt O14777 1-642, limits assumed)
T1 sequence (looked up): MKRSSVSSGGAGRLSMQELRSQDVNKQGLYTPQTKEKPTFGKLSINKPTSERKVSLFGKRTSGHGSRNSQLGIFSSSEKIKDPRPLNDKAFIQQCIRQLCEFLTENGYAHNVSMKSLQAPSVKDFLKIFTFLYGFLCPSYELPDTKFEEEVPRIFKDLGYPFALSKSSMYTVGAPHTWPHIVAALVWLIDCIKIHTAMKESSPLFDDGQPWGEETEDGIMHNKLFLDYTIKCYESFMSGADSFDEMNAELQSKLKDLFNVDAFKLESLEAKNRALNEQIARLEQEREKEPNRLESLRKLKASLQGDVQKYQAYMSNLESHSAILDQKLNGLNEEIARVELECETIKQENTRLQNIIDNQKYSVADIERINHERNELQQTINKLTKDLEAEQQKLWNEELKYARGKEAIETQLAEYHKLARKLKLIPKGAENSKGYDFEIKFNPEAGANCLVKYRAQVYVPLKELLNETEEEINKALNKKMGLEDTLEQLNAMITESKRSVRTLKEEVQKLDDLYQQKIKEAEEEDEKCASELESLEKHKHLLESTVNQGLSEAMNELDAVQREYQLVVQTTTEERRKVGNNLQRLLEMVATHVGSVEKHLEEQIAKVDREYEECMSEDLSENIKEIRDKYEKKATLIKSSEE

T2: DGI-2 polypeptide (UniProt Q15004 1-111, limits assumed)
T2 construct: Vector-derived residues or tag of pIVEX2.3 are not described for this construct; also called KIAA0101
T2 sequence (looked up): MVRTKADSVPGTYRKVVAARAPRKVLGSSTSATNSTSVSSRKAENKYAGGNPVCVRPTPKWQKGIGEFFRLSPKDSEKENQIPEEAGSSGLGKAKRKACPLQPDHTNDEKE


Assays:
[1] = target: T3, antibody raised against ETAG; assay: phage ELISA; anti-E-tag antibody coated
T3 construct: read-out of display; also called E-tag antibody; E tag antibody

[2] = target: T1, DGI-9 (HEC); assay: phage ELISA; DGI-9 signal over LDH signal
[3] = target: T1, DGI-9 (HEC); assay: phage ELISA; DGI-9 coated
[4] = target: T2, DGI-2 polypeptide; assay: phage ELISA, 405 nm; DGI-2 signal over LDH signal
Experimental: (§1) For analysis of individual target binders, colonies were picked and phage prepared as described above using helper phage, M13KO7. Ninety-six-well microtiter plates were coated with 500 ng/well of specific target protein, 500 ng/well lactate dehydrogenase (LDH) irrelevant or non-specific target, 500 ng/well of positive control antibody raised against ETAG, and negative control of non-fat milk powder-PBS 2% at 4° C. overnight. Plates were then blocked with 350 microliters/well PBS containing 2% non-fat milk for 1 hr at room temperature. One hundred microliters per well of phage from isolated clones were added and plates were incubated at room temperature for 2 hr after centrifuging samples for 20 minutes at 3500 rpm at 4° C. The phage solution was then removed, and the wells were washed three times with PBS at room temperature. Antibody raised against M13 conjugated to horseradish peroxidase (Pharmacia) was diluted 1:3000 in PBS-Tween and added to each well (100 µl/well). Incubation was for 1 hr at room temperature, followed by washing with PBS-(0.5%) Tween 3 times as described. Color was developed by addition of ABTS solution (100 µl/well; Boehringer, Indianapolis, Ind.). Plates were analyzed at 405 nm. A clone was considered "positive" if the $A405$ of the well was $\geq$2-fold over background.

[5] = target: T2, DGI-2 polypeptide; assay: phage ELISA, 405 nm; DGI-2 coated
Experimental: as §1

[6] = target: T3, antibody raised against ETAG; assay: phage ELISA, 405 nm; anti-E-tag antibody coated
Experimental: as §1

Binder | E-Tag [1] [ratio over background] | DGI9/LDH [2] [ratio] | DGI-9 [3] [ratio over background] | DGI-2/LDH (OD) [4] [ratio] | DGI-2 (OD) [5] [OD] | ETAG (OD) [6] [OD]
MAGFRGSGLSGYSEARLPRVGAPVPYPDPLEPR (library 20F; not shown: phage gene III coat protein (pCANTAB5E)) [DGI9-20M-4-E3] | 34.5 | 7.1 | 7 |  |  | 
DGI-2-40F-3-D3 (not shown: phage gene III coat protein (pCANTAB5E)) peptide: VQFAMTLSSRLWQHARHPLTDDAPPTVSFGTRRETLAGKAAAAGAPVPYPDPLEPRP |  |  |  | 1.1 | 0.9 | 0.9
WDWSRFGAQLRGAILGRATGGAPVPYPDPLEPR (library 20R (the E-tag is described for library 20F); not shown: phage gene III coat protein (pCANTAB5E)) [DGI9-20M-4-A627] | 27.2 | 6.5 | 6 |  |  | 
DGI-2-40F-3-A8 (not shown: phage gene III coat protein (pCANTAB5E)) peptide: GQISLAGVAVCSSERMLLAFSSRVFLPGLKVPVTTSQRGSAAAGAPVPYPDPLEPRP |  |  |  | 1.1 | 0.8 | 1.5
FLLQDFIMDAGSFVKPIGVGGAPVPYPDPLEPR (library 20F; not shown: phage gene III coat protein (pCANTAB5E)) [DGI9-20M-4-A414] | 32.6 | 8.1 | 8.7 |  |  | 
DGI-2-40F-3-D1 (not shown: phage gene III coat protein (pCANTAB5E)) peptide: MGQGFHYNRQPYMSHQCYAFTFSTPFLDGDRIPHGVSRGLAAAGAPVPYPDPLEPRP |  |  |  | 1 | 0.8 | 4.1
DGI-2-40F-3-A12 (not shown: phage gene III coat protein (pCANTAB5E)) peptide: RRTQPAYRSGADDRTSGFYCYVTSALSAGAWMPFLPRRLAAAAGAPVPYPDPLEPRP |  |  |  | 1.1 | 0.9 | 4.6
SRLALSSQHGLSLVAGRRRGGAPVPYPDPLEPR (library 20R (the E-tag is described for library 20F); not shown: phage gene III coat protein (pCANTAB5E)) [DGI9-20M-4-A12] | 20.7 | 2.1 | 1.9 |  |  | 
DGI-2-40F-3-A7 (not shown: phage gene III coat protein (pCANTAB5E)) peptide: CAYRWGLFRGPGRVDYDLQVVGIMMWPGPIPDRSSRGSVAAAAGAPVPYPDPLEPRP |  |  |  | 1.1 | 0.9 | 8.7
DGI-2-40F-3-B1 (not shown: phage gene III coat protein (pCANTAB5E)) peptide: HGTRLRGVDYVMTWAGWQGYSSRKHVQQAVAGSSPGSDELAAAGAPVPYPDPLEPRP |  |  |  | 1.2 | 0.8 | 6.3
DGI-2-40F-3-B6 (not shown: phage gene III coat protein (pCANTAB5E)) peptide: QSNVWVLVGVIMQGVWYQRQHYCVYVMLLSDQVSVLLAVAAAAGAPVPYPDPLEPRP |  |  |  | 1.2 | 0.9 | 1.8
DGI-2-40F-3-A1 (SEQ ID NO: 187) (not shown: phage gene III coat protein (pCANTAB5E)) peptide: QYFARGSFQFGLSHVLSAAAAFHLYVFCKRLSRGFGIKDDAAAGAPVPYPDPLEPRP |  |  |  | 1.1 | 0.8 | 2.4
